According to patent US20170275665:

Biological target: T1, Marinomonas mediterranea (MMB-1) Cas2, purified with N-terminal 6xHis tag
T1 chain: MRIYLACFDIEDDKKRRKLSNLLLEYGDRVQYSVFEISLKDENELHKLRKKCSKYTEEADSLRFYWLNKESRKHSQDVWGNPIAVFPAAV

B1: Marinomonas mediterranea (MMB-1) RT-Cas1 fusion protein, wild type, purified with N-terminal maltose-binding protein tag (protein)
chain: MLNSPLIDAVLPLRSVVITLRWLSPSKTGFLHHAGLHAWVRFLAGSPEQFSDFIVVEPIENGHISYQAGDGYRFRITVLNGGESLLDTLFSSLKRLPESAANHPDIAGAFSDNLVLEKIEDTFEHHQVTQIEDLSVFDINALMLETAVWSRQRRFKVAFNTPARLVKPKPEDGTELKGQNRYCRDKSDLNWQLFTHRLTDTFINLFQSRTGERLQRQNWPEAQLHAGLAVWLNNSYTNKKEKKVKDASGMLAQMQIEIDDDFPADLLALLVLGQYIGMGQNRAFGMGQYQLQDAYGYCSYPRPQAAKSLLEKSLSDASLHQACQTMYPRQANFDSSDTDEEHHDAIDELLTKLYVSRERIFKREFTPSQLHSVEIEKPEGGTRLLSVPNWHDRTLQKAVTECLGNTLEHIWMKHSYGYRKGHSRLQARDQINQYIQQGYEWVLESDIESFFDSVNWLNLEQRLKLLLPNEPLVPLLMQWVSAAKQTEDEQTLARHNGLPQGAPISPILANLLLDDLDQDMIAKGHQIVRYADDFVLLFKSKAAAESALDDIITALKEHHLAINLEKTRIVEASQGFRYLGYLFVDGYAIETKREYRKEHAQLDKQLNASSLENEPSLQQEPAVQNEQSTLIGEREKLGTLLIIAGDIAMLSSEKQRLIVEQYDELHTYPWATLSSVLLVGPHHITTPALKSAMFHNVPVHFASQYGRYQGVSAGAAPSVFGADFWLLQAQYLQQETNALNISQVLIQARIEGIRAVISRREKDAPELNKIQRLDEKRLRAETLDQLRGYEGQASKQLWAFFQRILEEDWGFTGRNRRPPKDPINALLSLGYTYLYSLVDSVNRTVGLYPWQGALHQRHGYHHTLASDLMEPWRYLVEHVVLTLINRHQIHKDDFVIKENGCEMSSGARKTLLKELLVQLTKVPKGGNSLLTEMSNQSYRLALSCKMQQRFIAWSPKR
In the case of B1, the “cleavage of the CRISPR DNA substrate with ligation of a dsDNA oligonucleotide (in vitro cleavage-ligation assay, gel)” value is reported as “products derived from cleavage of the CRISPR substrate were readily detected in the presence of RT-Cas1 and Cas2 together but not in the presence of either protein alone”.
